Test results as given in publication PMC5408928.

Target: yeast 80S ribosome (S. cerevisiae)
Assay: crystal structure

eIF5A-occupancy refinement (%)	Substance
97	hypusinated eIF5A from Saccharomyces cerevisiae (from UniProt P23301 1-157) (natural protein)
88	unmodified eIF5A from S. cerevisiae (from UniProt P23301 1-157) (natural protein)
